# Measured values taken from patent EP4269437A1.
# Changes are numbered by the printed parent chain. “And” between values parts separate entries of the source, which are not always exact repeats. Identical values can stand only once.
# B1: NB215 (VHH)
# VHH: EVQVVESGGGLVQAGDSLRLSCAASGGTISGYEMGWFRQAPGKEREFVAGISRNGRSTGYSDSAKDRFTISRDNAKNTVYLQMNSLKPEDTAVYYCAAGLKADYGDSYVDTSTRNYNYWGQGTQVTVSS
# B2: NB194 (Fc fusion, not shown: a dimerising Fc or GST)
# VHH: QVQLVETGGGLVRAGGSLRLSCTASGRPFSIYDMGWFRQAPDKERESVAVINLSRGDTYYADSVKGRFTISLDSAKNTVYLQMNSLKPEDTAVYSCGVDRRQYGLGIPPLADHWGQGTQVTVSS
# B3: NB211 (VHH)
# VHH: EVQVVETGGGLAQAGGSLRLSCAASGRTFSGYTVGWYRQSPGKEREFVAAISYSGGSTDYADSVKGRFTISRDNANNTVYLQMGSLKAEDTAVYYCNRVIRGTRDPSIYYVMDYWGKGTLVTVSS
# B4: NB205 (VHH)
# VHH: EVQLVESGGGLVQVGDSLRLSCAASGRTFSSVPMGWFRQAPGNQREFVAAISKSGGSAGYADSVKDRSTISRDNAKNTIYLQMNSLKPEDTAVYYCAASSFDFCSTHGCYDYWGQGTQVTISS
# B5: NB216 (VHH)
# VHH: B4 VHH with E1Q, Q13R, V14A, R19T, F101Y
# B6: NB218 (VHH)
# VHH: QLQLVESGGGLVQAGDSLRLSCAASGRTFSSIAMGWFRQAPGKEREFVAAISRSGGSAGYADSVKDRSTIVRDNTKNTVYLQMNSLKPEDTAVYFCAASDYDFCSTHGCYDYWGQGTQVTISS
# B7: NB220 (VHH)
# VHH: QVQLQESGGGLLQAGDSLRLSCIVSGRTFSSYAIGWFRQAPGKEREFVAGINWSGRSQYYSESVKDRFTVSIDNAKNTVYLQMNSLKPEDTAVYYCAAERHLGVPTVRDDEYDDWGQGTQVTVSS
# B8: NB182 (Fc fusion, not shown: a dimerising Fc or GST)
# VHH: QVQLVESGGGLVQAGGSLRLSCAASGDTSFISAAGWYRQAPGKERELVAAITNTGITYYPDSVKGRFTISRDNAKNTVYLQMNNLKPEDTAVYYCNAGAPPPGGLGYDESDYWGQGTQVTVSS
# B9: NB202 (VHH)
# VHH: EVQVVESGGGLVQAGGSLRLSCTASGDTRLASAMGWYRQAPGKERELVAAITNSGLTYYADSVEGRFTISRDSAKNTVYLQMNSLKPEDTAVYYCNAGAPPPGGLGYDESDYWGQGTQVTVSS
# B10: NB209 (VHH)
# VHH: B9 VHH with A14T, T23A, R29A, A31F, M34V, I51L, S54T, L56I, S70F, S73N
# Molecular target: PD-1 (UniProt Q15116)
# Test: ELISA, TG1 supernatant on coated PD-1, anti-c-myc HRP
# Target sequence in this assay (Q15116 25-170 limits assumed): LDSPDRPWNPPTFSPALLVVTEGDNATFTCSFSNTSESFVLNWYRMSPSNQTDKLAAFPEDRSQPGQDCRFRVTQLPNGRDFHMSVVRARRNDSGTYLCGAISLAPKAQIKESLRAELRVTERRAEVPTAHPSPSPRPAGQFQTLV
row,"OD450, clone binding with PD-1",Binder
1,3.29 OD450,B1
2,2.83 OD450,B2
3,2.71 OD450,B3
4,2.25 OD450,B4
5,2.75 OD450,B5
6,2.62 OD450,B6
7,2.38 OD450,B7
8,3.08 OD450,B8
9,3.04 OD450,B9
10,3.22 OD450,B10

# Molecular target: PD-1 (CD28 family protein, ACROBiosystems) (UniProt Q15116)
# Test: ELISA on coated protein, anti-human Fc HRP
# Sequence of PD-1 (CD28 family protein, ACROBiosystems) (Q15116 25-167 limits assumed): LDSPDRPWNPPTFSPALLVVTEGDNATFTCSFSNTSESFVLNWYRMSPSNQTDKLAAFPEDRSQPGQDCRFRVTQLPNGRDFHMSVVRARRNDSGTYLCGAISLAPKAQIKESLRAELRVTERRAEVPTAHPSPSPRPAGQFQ
row,ELISA (OD),Binder
1,2.03 OD and 1.96 OD and 2.27 OD,B2
2,2.06 OD and 2.09 OD and 2.29 OD,B8

# Molecular target: PD-1 (UniProt Q15116)
# Test: ELISA on coated protein, anti-human Fc HRP
# Target sequence in this assay (Q15116 25-167 limits assumed): as above
row,ELISA (OD),Binder
1,2.22 OD and 1.95 OD and 2.11 OD,B2
2,2.17 OD and 2.13 OD and 2.1 OD,B8

# Molecular target: cynomolgus monkey PD-1 protein (cynomolgus monkey) (UniProt B0LAJ3)
# Test: ELISA on coated protein, anti-human Fc HRP
# Sequence of cynomolgus monkey PD-1 protein (cynomolgus monkey) (B0LAJ3 entry or part of it limits assumed): as the sequence (Q15116 25-170 limits assumed) above, with D2E, P10A, V19L, T35A, Q75R, T144A counted along it
row,ELISA (OD),Binder
1,2.23 OD and 2.17 OD and 2.1 OD,B2
2,2.07 OD and 2.08 OD and 1.95 OD,B8

# Molecular target: PD-1 (UniProt Q15116)
# Test: blocking ELISA, clone supernatant, competitor PD-L1.hFc detected with anti-human Fc HRP
# Target sequence in this assay (Q15116 25-170 limits assumed): as the sequence (Q15116 25-170 limits assumed) above
row,"OD450, PD-L1 binding with PD-1",Binder
1,1.27 OD450,B1
2,0.152 OD450,B2
3,2.21 OD450,B3
4,2.2 OD450,B4
5,2.45 OD450,B5
6,2.32 OD450,B6
7,2.21 OD450,B7
8,0.213 OD450,B8
9,0.723 OD450,B9
10,2.04 OD450,B10
